In PMC11079029, “Intramolecular autoinhibition regulates the selectivity of PRPF40A tandem WW domains for proline-rich motifs” (Nature Communications, 2024):
Where “and” joins values, the source holds several entries; their conditions need not be identical. Equal entries are not always repeated.

B1: GB1-SF1 Pro BCD (residues 468-639) (domain or fragment, UniProt Q15637 468-639, looked up)
chain: GMMPPPPMGMMPPPPPPPSGQPPPPPSGPLPPWQQQQQQPPPPPPPSSSMASSTPLPWQQNTTTTTTSAGTGSIPPWQQQQAAAAASPGAPQMQGNPTMVPLPPGVQPPLPPGAPPPPPPPPPGSAGMMYAPPPPPPPPMDPSNFVTMMGMGVAGMPPFGMPPAPPPPPPQN
notes: splicing factor 1 (SF1), residues 468-639; His6-GB1-TEV site cassette of the pET24 vector, not cleaved; source: E. coli BL21(DE3), purified (Ni-NTA, SEC); not shown: GB1, N-terminal, kept
B2: GB1-SF3A1 Middle Pro (residues 364-413) (domain or fragment, UniProt Q15459 364-413, looked up)
chain: EGQKVPPPPETPMPPPLPPTPDQVIVRKDYDPKASKPLPPAPAPDEYLVS
notes: SF3A1 (U2 snRNP component), proline-rich region, residues 364-413; His6-GB1-TEV site cassette of the pET24 vector, not cleaved; source: E. coli BL21(DE3), purified (Ni-NTA, SEC); not shown: GB1, N-terminal, kept
B3: GB1-SF1 Pro ABCD (residues 410-639) (domain or fragment, UniProt Q15637 410-639, looked up)
chain: GHPMQHNPNGPPPPWMQPPPPPMNQGPHPPGHHGPPPMDQYLGSTPVGSGVYRLHQGKGMMPPPPMGMMPPPPPPPSGQPPPPPSGPLPPWQQQQQQPPPPPPPSSSMASSTPLPWQQNTTTTTTSAGTGSIPPWQQQQAAAAASPGAPQMQGNPTMVPLPPGVQPPLPPGAPPPPPPPPPGSAGMMYAPPPPPPPPMDPSNFVTMMGMGVAGMPPFGMPPAPPPPPPQN
notes: splicing factor 1 (SF1), residues 410-639, the complete proline-rich C-terminal region; His6-GB1-TEV site cassette of the pET24 vector, not cleaved; source: E. coli BL21(DE3), purified (Ni-NTA, SEC); not shown: GB1, N-terminal, kept
B4: GB1-SF3A1 C-ter Pro (residues 552-683) (domain or fragment, UniProt Q15459 552-683, looked up)
chain: EIPQQPPPPSSATNIPSSAPPITSVPRPPTMPPPVRTTVVSAVPVMPRPPMASVVRLPPGSVIAPMPPIIHAPRINVVPMPPSAPPIMAPRPPPMIVPTAFVPAPPVAPVPAPAPMPPVHPPPPMEDEPTSK
notes: His6-GB1-TEV site cassette of the pET24 vector, not cleaved; source: E. coli BL21(DE3), purified (Ni-NTA, SEC); not shown: GB1, N-terminal, kept
B5: GB1-SF1 Pro CD (residues 539-639) (domain or fragment, UniProt Q15637 539-639, looked up)
chain: GSIPPWQQQQAAAAASPGAPQMQGNPTMVPLPPGVQPPLPPGAPPPPPPPPPGSAGMMYAPPPPPPPPMDPSNFVTMMGMGVAGMPPFGMPPAPPPPPPQN
notes: splicing factor 1 (SF1), residues 539-639; His6-GB1-TEV site cassette of the pET24 vector, not cleaved; source: E. coli BL21(DE3), purified (Ni-NTA, SEC); not shown: GB1, N-terminal, kept
B6: GB1-SF1 Pro BC (residues 468-594) (domain or fragment, UniProt Q15637 468-594, looked up)
chain: GMMPPPPMGMMPPPPPPPSGQPPPPPSGPLPPWQQQQQQPPPPPPPSSSMASSTPLPWQQNTTTTTTSAGTGSIPPWQQQQAAAAASPGAPQMQGNPTMVPLPPGVQPPLPPGAPPPPPPPPPGSAG
notes: splicing factor 1 (SF1), residues 468-594; His6-GB1-TEV site cassette of the pET24 vector, not cleaved; also called SF1 BC; source: E. coli BL21(DE3), purified (Ni-NTA, SEC); not shown: GB1, N-terminal, kept
B7: GB1-tagged SF1 Pro D (594-639) (domain or fragment, UniProt Q15637 594-639, looked up)
chain: GMMYAPPPPPPPPMDPSNFVTMMGMGVAGMPPFGMPPAPPPPPPQN
notes: SF1 residues 594-639; also called the very C-terminal region; source: E. coli BL21(DE3), purified (Ni-NTA, SEC), GB1 tag kept; not shown: GB1, N-terminal, kept
B8: GB1-SF1 Pro BCD (residues 468-639) (domain or fragment, UniProt Q15637 468-639, looked up)
chain: GMMPPPPMGMMPPPPPPPSGQPPPPPSGPLPPWQQQQQQPPPPPPPSSSMASSTPLPWQQNTTTTTTSAGTGSIPPWQQQQAAAAASPGAPQMQGNPTMVPLPPGVQPPLPPGAPPPPPPPPPGSAGMMYAPPPPPPPPMDPSNFVTMMGMGVAGMPPFGMPPAPPPPPPQN
notes: SF1 (splicing factor 1) residues 468-639; pET24 vector with 6xHis, GB1 and TEV site as N-terminal cassette, not cleaved; source: E. coli BL21(DE3), purified (Ni-NTA, SEC); not shown: GB1, N-terminal, kept
B9: GB1-SF1 Pro B (residues 468-539) (domain or fragment, UniProt Q15637 468-539, looked up)
chain: GMMPPPPMGMMPPPPPPPSGQPPPPPSGPLPPWQQQQQQPPPPPPPSSSMASSTPLPWQQNTTTTTTSAGTG
notes: SF1 (splicing factor 1) residues 468-539 of the proline-rich C-terminal region; pET24 vector with 6xHis, GB1 and TEV site as N-terminal cassette, not cleaved; source: E. coli BL21(DE3), purified (Ni-NTA, SEC); not shown: GB1, N-terminal, kept
B10: GB1-SF3A1 Middle Pro (residues 364-413) (domain or fragment, UniProt Q15459 364-413, looked up)
chain: EGQKVPPPPETPMPPPLPPTPDQVIVRKDYDPKASKPLPPAPAPDEYLVS
notes: SF3A1 residues 364-413, proline-rich region with a PPLP motif; pET24 vector with 6xHis, GB1 and TEV site as N-terminal cassette, not cleaved; also called SF3A1 region (364-413); source: E. coli BL21(DE3), purified (Ni-NTA, SEC); not shown: GB1, N-terminal, kept
B11: GB1-SF1 Pro D (residues 594-639) (domain or fragment, UniProt Q15637 594-639, looked up)
chain: GMMYAPPPPPPPPMDPSNFVTMMGMGVAGMPPFGMPPAPPPPPPQN
notes: SF1 (splicing factor 1) residues 594-639, the very C-terminal region; pET24 vector with 6xHis, GB1 and TEV site as N-terminal cassette, not cleaved; source: E. coli BL21(DE3), purified (Ni-NTA, SEC); not shown: GB1, N-terminal, kept
B12: GB1-SF1 Pro ABCD (residues 410-639) (domain or fragment, UniProt Q15637 410-639, looked up)
chain: GHPMQHNPNGPPPPWMQPPPPPMNQGPHPPGHHGPPPMDQYLGSTPVGSGVYRLHQGKGMMPPPPMGMMPPPPPPPSGQPPPPPSGPLPPWQQQQQQPPPPPPPSSSMASSTPLPWQQNTTTTTTSAGTGSIPPWQQQQAAAAASPGAPQMQGNPTMVPLPPGVQPPLPPGAPPPPPPPPPGSAGMMYAPPPPPPPPMDPSNFVTMMGMGVAGMPPFGMPPAPPPPPPQN
notes: SF1 (splicing factor 1) residues 410-639, the complete proline-rich C-terminal region; pET24 vector with 6xHis, GB1 and TEV site as N-terminal cassette, not cleaved; also called complete C-terminal region of SF1; source: E. coli BL21(DE3), purified (Ni-NTA, SEC); not shown: GB1, N-terminal, kept
B13: GB1-SF3A1 C-ter Pro (residues 552-683) (domain or fragment, UniProt Q15459 552-683, looked up)
chain: EIPQQPPPPSSATNIPSSAPPITSVPRPPTMPPPVRTTVVSAVPVMPRPPMASVVRLPPGSVIAPMPPIIHAPRINVVPMPPSAPPIMAPRPPPMIVPTAFVPAPPVAPVPAPAPMPPVHPPPPMEDEPTSK
notes: pET24 vector with 6xHis, GB1 and TEV site as N-terminal cassette, not cleaved; source: E. coli BL21(DE3), purified (Ni-NTA, SEC); not shown: GB1, N-terminal, kept
B14: GB1-SF1 Pro A (residues 410-468) (domain or fragment, UniProt Q15637 410-468, looked up)
chain: GHPMQHNPNGPPPPWMQPPPPPMNQGPHPPGHHGPPPMDQYLGSTPVGSGVYRLHQGKG
notes: SF1 (splicing factor 1) residues 410-468 of the proline-rich C-terminal region; pET24 vector with 6xHis, GB1 and TEV site as N-terminal cassette, not cleaved; source: E. coli BL21(DE3), purified (Ni-NTA, SEC); not shown: GB1, N-terminal, kept
B15: GB1-SF1 Pro C (residues 539-594) (domain or fragment, UniProt Q15637 539-594, looked up)
chain: GSIPPWQQQQAAAAASPGAPQMQGNPTMVPLPPGVQPPLPPGAPPPPPPPPPGSAG
notes: SF1 (splicing factor 1) residues 539-594; pET24 vector with 6xHis, GB1 and TEV site as N-terminal cassette, not cleaved; source: E. coli BL21(DE3), purified (Ni-NTA, SEC); not shown: GB1, N-terminal, kept
B16: GB1-SF1 Pro CD (residues 539-639) (domain or fragment, UniProt Q15637 539-639, looked up)
chain: GSIPPWQQQQAAAAASPGAPQMQGNPTMVPLPPGVQPPLPPGAPPPPPPPPPGSAGMMYAPPPPPPPPMDPSNFVTMMGMGVAGMPPFGMPPAPPPPPPQN
notes: SF1 (splicing factor 1) residues 539-639; pET24 vector with 6xHis, GB1 and TEV site as N-terminal cassette, not cleaved; source: E. coli BL21(DE3), purified (Ni-NTA, SEC); not shown: GB1, N-terminal, kept
B17: GB1-SF1 Pro BC (residues 468-594) (domain or fragment, UniProt Q15637 468-594, looked up)
chain: GMMPPPPMGMMPPPPPPPSGQPPPPPSGPLPPWQQQQQQPPPPPPPSSSMASSTPLPWQQNTTTTTTSAGTGSIPPWQQQQAAAAASPGAPQMQGNPTMVPLPPGVQPPLPPGAPPPPPPPPPGSAG
notes: SF1 (splicing factor 1) residues 468-594; pET24 vector with 6xHis, GB1 and TEV site as N-terminal cassette, not cleaved; source: E. coli BL21(DE3), purified (Ni-NTA, SEC); not shown: GB1, N-terminal, kept

Biological target: T1, PRPF40A WW12 (tandem WW domains, residues 141-236) (human, UniProt O75400 141-236)
T1 construct: A few vector residues probably remain at the N-terminus after TEV cleavage (pETM11, NcoI site); 15N-labelled in the NMR experiments; also called PRPF40A WW tandem; WW12 wt; source: E. coli BL21(DE3), purified (Ni-NTA, TEV digestion, reverse Ni-NTA, SEC); not shown: His6, N-terminal, cleaved
Experiment: ITC; PRPF40A construct (WW12, N-ext-WW12 or its mutant) in the cell, GB1-SF1 or GB1-SF3A1 construct in the syringe (as shown in Supplementary Figures 16 and 21); 25 °C, 20 mM sodium phosphate pH 6.5, 100 mM NaCl; one-site binding model; at least duplicates; affinities apparent
Conditions: both partners purified

**Q.** For B1, which “stoichiometry N” value is on record?
**A.** 0.28 ± 0.02 sites

**Q.** For B2, which Kd is on record?
**A.** 8.86 ± 1.38 µM

**Q.** And the “stoichiometry N” value?
**A.** 0.56 ± 0.14 sites

**Q.** Which “stoichiometry N” value does the source give for B3 here?
**A.** 0.28 ± 0.05 sites

**Q.** B4 was tested. Which “stoichiometry N” value did it give?
**A.** 0.27 ± 0.07 sites

**Q.** Which “stoichiometry N” value does the source give for B5 here?
**A.** 0.39 ± 0.02 sites

**Q.** How did the “stoichiometry N” value turn out when B6 was run?
**A.** 0.53 ± 0.05 sites

Biological target: T2, PRPF40A WW12 (tandem WW domains, residues 141-236) (human, UniProt O75400 141-236)
T2 construct: pETM11 vector, NcoI/KpnI; 15N or 13C,15N labelled for NMR; also called PRPF40A WW tandem; PRPF40A tandem WW domains; source: E. coli BL21(DE3), purified (Ni-NTA, TEV, reverse Ni-NTA, SEC); not shown: His6, N-terminal, cleaved
Experiment: ITC; GB1-tagged SF1/SF3A1 constructs in the syringe and the WW tandem in the cell; 25 °C, 20 mM sodium phosphate pH 6.5, 100 mM NaCl; one-site model; apparent affinities
Conditions: both partners purified

**Q.** With B7 as the binder, how does the Kd read?
**A.** ~10 µM

Biological target: T3, PRPF40A WW12 (tandem WW domains, residues 141-236) (human, UniProt O75400 141-236)
T3 construct: pETM11 vector (NcoI/KpnI); also called PRPF40A WW tandem; isolated WW domains; source: E. coli BL21(DE3), purified (Ni-NTA, TEV cleavage, reverse Ni-NTA, SEC); not shown: His6, N-terminal, cleaved
Experiment: ITC; MicroCal PEAQ-ITC, 25 °C, 20 mM sodium phosphate pH 6.5, 100 mM NaCl; GB1-tagged SF1/SF3A1 constructs in the syringe, WW12 in the cell (N sites <1: more than one WW tandem on one construct); one-site model; apparent
Conditions: both partners purified

**Q.** Which “stoichiometry N” value does the source give for B8 here?
**A.** 0.3 and 0.26 and 0.28

**Q.** Which Kd does the source give for B9 here?
**A.** 15.7 µM and 16.1 µM and 20.6 µM

**Q.** What about the “stoichiometry N” value of the same binder?
**A.** 1.3 and 1.15

**Q.** How did the Kd turn out when B10 was run?
**A.** 8.1 µM and 9.6 µM and 8.86 µM

**Q.** And the “stoichiometry N” value?
**A.** 0.7 and 0.42 and 0.56

**Q.** For B11, which Kd is on record?
**A.** 10.3 µM and 9.94 µM and 10.1 µM

**Q.** And the “stoichiometry N” value?
**A.** 0.84 and 0.9 and 0.87

**Q.** B12 was tested. Which “stoichiometry N” value did it give?
**A.** 0.33 and 0.23 and 0.28

**Q.** For B13, which “stoichiometry N” value is on record?
**A.** 0.25 and 0.28 and 0.27

**Q.** For B14, which Kd is on record?
**A.** 24.8 µM and 25.4 µM and 25.1 µM

**Q.** What about the “stoichiometry N” value of the same binder?
**A.** 0.97 and 1 and 0.99

**Q.** What does the source list for B15?
**A.** Kd: 2.1 µM and 1.94 µM and 2.02 µM; stoichiometry N: 0.87 and 0.88

**Q.** With B16 as the binder, how does the “stoichiometry N” value read?
**A.** 0.42 and 0.38 and 0.36 and 0.39

**Q.** B17 was tested. Which “stoichiometry N” value did it give?
**A.** 0.5 and 0.6 and 0.53
